Consider three molecules from paper PMC6934851, “Yeast R2TP Interacts with Extended Termini of Client Protein Nop58p” (Scientific Reports, 2019).

In general, Kd refers to a measure of binding affinity in units of concentration. A word on the stoichiometry N: it is the number of molecules, sites or subunits per partner or assembly.

The labels stand for the following.
T1: Maltose Binding Protein (MBP)-fused Nop58p_447 (S. cerevisiae, UniProt Q12499 1-447)
T1 chain: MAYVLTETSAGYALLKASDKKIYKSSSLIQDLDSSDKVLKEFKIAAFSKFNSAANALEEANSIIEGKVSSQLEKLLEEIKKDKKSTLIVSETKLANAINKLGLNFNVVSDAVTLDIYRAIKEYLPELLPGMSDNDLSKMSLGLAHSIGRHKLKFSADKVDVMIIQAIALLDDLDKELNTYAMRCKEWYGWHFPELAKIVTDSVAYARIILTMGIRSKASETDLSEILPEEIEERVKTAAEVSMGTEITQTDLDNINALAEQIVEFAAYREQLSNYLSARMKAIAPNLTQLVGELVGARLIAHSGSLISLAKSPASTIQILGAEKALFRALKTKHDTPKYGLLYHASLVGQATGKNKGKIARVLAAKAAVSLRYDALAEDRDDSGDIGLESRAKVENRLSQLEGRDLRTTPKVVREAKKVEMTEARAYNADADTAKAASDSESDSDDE

B1: Maltose Binding Protein (MBP)-fused Nop58p_447 (domain or fragment, S. cerevisiae, UniProt Q12499 1-447, looked up)
chain: T1 chain
notes: In the cross-linking and cryo-EM sections the text often calls this MBP fusion simply Nop58p_447; also called MBP-Nop58p_447; MBP-Nop58_447; source: E. coli, purified (amylose, monoQ, gel filtration); not shown: MBP, N-terminal, kept
B2: Pih1p-Tah1p heterodimer (complex, yeast)
chain 1: MADFLLRPIKQRHRNEDKYVSVDAADGSVSKIEPIADFVIKTKLLSANGPEKLQDGRKVFINVCHSPLVPKPEVDFNARIVFPLIIQNEWEIPIITSCYRMDHDKKGQECYVWDCCINSDCSRWICDDIQLREILVEWCLESCEIRDSVVLCRDRIAFPKMKKKGAELPALEVLNDELHQDYKAKMHKIIEEEAGDPMSILRGRNDDGDDNNDPDDGTLPPLFPIENKISGAKIEEIDKNEIAHRNLKQAPAPAPAPHEQQEDVPEYEVKMKRFKGAAYKLRILIENKAPNSKPDRFSPSYNFAENILYINGKLSIPLPRDIVVNAADIKIFHIRKERTLYIYI
chain 2: MSQFEKQKEQGNSLFKQGLYREAVHCYDQLITAQPQNPVGYSNKAMALIKLGEYTQAIQMCQQGLRYTSTAEHVAIRSKLQYRLELAQGAVGSVQIPVVEVDELPEGYDRS
notes: Tah1p, yeast, YCR060W; also called His-Pih1p-Tah1p; source: purified
B3: Pih1p (natural protein, yeast, UniProt P38768 1-344, looked up)
chain: B2 chain 1
notes: Subunit as it stood in the MBP-Nop58p_447-R2TP complex; source: purified as His-Pih1p-Tah1p, within reconstituted R2TP

The target in assay [1] is T2, Rvb1p (yeast, UniProt Q03940 1-463).
T2 construct: Rvb1p, yeast AAA+ ATPase; Subunit as it stood in the MBP-Nop58p_447-R2TP complex; also called Ruv1p; source: purified as Rvb1/2p heterocomplex, within reconstituted R2TP
T2 sequence (Q03940 whole entry): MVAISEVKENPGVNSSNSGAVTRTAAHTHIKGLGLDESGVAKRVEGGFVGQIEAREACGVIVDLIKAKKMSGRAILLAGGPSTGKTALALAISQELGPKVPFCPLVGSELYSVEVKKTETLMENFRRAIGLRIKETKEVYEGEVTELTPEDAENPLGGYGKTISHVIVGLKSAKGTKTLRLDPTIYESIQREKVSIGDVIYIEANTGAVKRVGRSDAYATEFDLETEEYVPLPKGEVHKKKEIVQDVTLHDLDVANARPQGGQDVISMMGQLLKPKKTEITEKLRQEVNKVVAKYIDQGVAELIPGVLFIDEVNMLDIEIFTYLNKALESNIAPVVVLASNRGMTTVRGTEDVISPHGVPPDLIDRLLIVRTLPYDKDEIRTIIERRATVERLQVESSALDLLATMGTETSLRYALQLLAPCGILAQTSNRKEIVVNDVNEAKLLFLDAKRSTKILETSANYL
The assay is described as follows: cross-linking; co-purified MBP-Nop58p_447-R2TP complex, BS3-d0/BS3-d4 for 30 min, SDS-PAGE, trypsin, mass spectrometry. To be noted: both partners purified.

For assay [2], the target named is T3, Rvb2p (yeast, UniProt Q12464 1-471).
T3 construct: Rvb2p, yeast AAA+ ATPase; Subunit as it stood in the MBP-Nop58p_447-R2TP complex; also called Ruv2p; source: purified as Rvb1/2p heterocomplex, within reconstituted R2TP
T3 sequence (Q12464 whole entry): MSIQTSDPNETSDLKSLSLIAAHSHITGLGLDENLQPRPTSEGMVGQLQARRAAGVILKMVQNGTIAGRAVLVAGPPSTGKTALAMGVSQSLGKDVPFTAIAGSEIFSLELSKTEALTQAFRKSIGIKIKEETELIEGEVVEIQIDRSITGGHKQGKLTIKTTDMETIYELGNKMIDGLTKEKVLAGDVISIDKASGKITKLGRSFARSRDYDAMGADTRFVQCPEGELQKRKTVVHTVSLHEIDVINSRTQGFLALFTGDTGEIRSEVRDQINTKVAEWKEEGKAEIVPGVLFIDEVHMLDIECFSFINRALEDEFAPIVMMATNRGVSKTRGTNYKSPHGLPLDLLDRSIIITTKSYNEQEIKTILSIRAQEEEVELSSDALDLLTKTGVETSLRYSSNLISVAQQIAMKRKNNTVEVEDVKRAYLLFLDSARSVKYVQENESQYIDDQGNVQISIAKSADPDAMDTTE
Described as above. The note with it: both partners purified.

Assay [3] has as its target T1, Maltose Binding Protein (MBP)-fused …. The assay is described as follows: ITC. For orientation: Isothermal titration calorimetry measures the heat released or taken up as one component is titrated into another.
Assay [4] concerns the target B1. As to the kind of experiment: ITC; MBP-Nop58p in the sample cell (MBP-Nop58p_447 at 7.8 μM), Pih1p-Tah1p in the injector at 99.6 μM; 25 °C; 25 mM HEPES, 150 mM NaCl, 5% glycerol, 5 mM beta-ME, pH 7.5; One Site model. To be noted: both partners purified.
Assay [5] addresses B1. As to the kind of experiment: cross-linking; co-purified MBP-Nop58p_447-R2TP complex, BS3-d0/BS3-d4 for 30 min, SDS-PAGE, trypsin, mass spectrometry. To be noted: both partners purified.

With B1, the binding result in assay [1] and in assay [2] was “binds” throughout.
For B2, the Kd in assay [3] is 440 nM. Besides, the “stoichiometry N” value in assay [4] turned out to be 1.
In the case of B3, the binding result in assay [1] and in assay [5] was “binds” each time.
